From patent US5593882

What was measured:
[1] = target: P-Selectin ligand on HL60 cells and human neutrophils (human); experiment: flow cytometry, staining of HL60 cells
[2] = target: E-Selectin-IgG chimera (wild type) (human) (UniProt P16581); experiment: capture ELISA, mAb coated
PE-1 chimera (human) = PE-1 chimera (human) (UniProt P16581); experiment: capture ELISA, mAb coated
[3] = target: P-Selectin-IgG chimera (human) (UniProt P16109); experiment: capture ELISA, mAb coated
[4] = target: P-Selectin-IgG REKDV mutant (human) (UniProt P16109); experiment: capture ELISA

Row | % cells positive [1] [%] | MFI [1] [MFI] | O.D. 450 [2] [O.D. 450] | O.D. 450 (PE-1 chimera (human)) [O.D. 450] | O.D. 450 [3] [O.D. 450] | percent of control P-Selectin-IgG binding [4] [%] | Substance
1 | 97 | 416 |  |  |  |  | P-Selectin-IgG chimera (from UniProt P16109) (Fc fusion)
2 |  |  | 0 | 0.1 | 2.8 | 70 | mAb AC 1.2 (antibody)
3 |  |  | 0 | 1.7 | 1.3 | 70 | mAb AK-6 (CLB-thromb/6) (antibody)
